Assay results taken from patent US9284369B2, “Inhibition of angiogenesis” (Genentech, Inc., priority 2007, dated 2016).

Tests used:
[1] = test system: Bv8 expression; assay: Regulation of Bv8 gene expression in cultured human blood and bone marrow cells (Taqman); type: cell-based
Experimental: RNA was prepared using the RNeasy™ Mini Kit (Qiagen). 50 ng total RNA per reaction was used for the real time PCR (Taqman) analysis. For human Bv8, testis RNA (BD Biosciences) served as control. Reactions were run on 9600 Emulation mode of 7500 Real time PCR system (Applied Biosystems, Foster City, Calif.) and the absolute quantification with standard curve was used with Sequence Detection System (SDS) software. The expression level of each gene was further quantified relative to the housekeeping gene RPL19 in the same sample. The sequences of Taqman primers are as follows: Human Bv8 forward: ATG GCA CGG AAG CTA GGA (SEQ ID NO: 10), reverse: GCAGAGCTGAAGTCCTCTTGA (SEQ ID NO: 11), probe: TGCTGCTGGACCCTTCCTAAACCT (SEQ ID NO: 12); Human RPL19 forward: CGC AAG CGC CGT GAA (SEQ ID NO: 28), reverse: GGTCTCTTCCTCCTTGGATAAAGTC (SEQ ID NO: 29), probe: CCAGGCCAAGAAGGAGGAGATCATCA (SEQ ID NO: 30). Human specific VEGF forward: AAT GAC GAG GGC CTG GAG T (SEQ ID NO: 31), reverse: TTGATCCGCATAATCTGCATG (SEQ ID NO: 32), probe: TGTGCCCACTGAGGAGTCCAACATCA (SEQ ID NO: 33).
Recombinant human MCP-1, MIP-1α, MIP-1β, MIP-2, bFGF, VEGF, GM-CSF, G-CSF, SDF-1α, M-CSF, Erythropoietin (EPO) and TNFα were purchased from R&D Systems (Minneapolis, Minn.). Recombinant human IL-8, IFNγ, Bv8 (Prokineticin-2), IL-4, IL-10, IL-13, TGF-β were from PeproTech Inc. (Rocky Hill, N.J.). SCF (Stem Cell factor) was from Invitrogen Biosource (Carlsbad, Calif.). In some cases, G-CSF from Amgen (Neupogen/Filgrastim) was used. All cytokines were used at 10 ng/ml. Freshly purified cells were washed and re-suspended in HBSS media containing 0.2% BSA (low endotoxin, Serologicals Corp. Norcross, Ga.). Two million cells were incubated in 24-well plates with various cytokines and chemokines for 4 hr at 37° C. in a 5% CO2 incubator. Cells were then transferred into eppendorf tubes, centrifuged and lysed with RNA lysis buffer (Qiagen, Valencia, Calif.). Bv8 expression was assessed by Taqman with RPL19 (Ribosomal Protein L19) as the internal control gene.

[2] = test system: Bv8 and PKR2/EG-VEGFR2 expression; assay: White blood cells from G-CSF treated donors; type: in vivo, human
Experimental: MaxiSorp® 96-well microwell plates (Nalge Nunc International, Rochester, N.Y.) were coated with 1.0 μg/ml 3F1 mouse monoclonal antibody (Genentech Inc.) in 50 mM carbonate buffer, pH 9.6, at 4° C. overnight. Plates were washed with PBS containing 0.05% polysorbate 20 and blocked with 0.5% bovine serum albumin, 15 p.p.m. (parts per million) Proclin 300 (Supelco, Bellefonte, Pa.) in PBS at room temperature for 1 h. After plates were washed, human Bv8 standards (0.020-2.5 ng/ml in 2-fold serial dilution, PeproTech, Rocky Hill, N.J.) and samples (minimum 1:10 dilution) in PBS containing 0.5% bovine serum albumin, 0.05% polysorbate 20, 15 p.p.m. Proclin 300 (Supelco, Bellefonte, Pa.) and 0.35N NaCl (sample buffer) were serially diluted and were added to each well. The plates were incubated for 2 hr at room temperature followed by a washing step. The bound Bv8 was detected by adding the secondary antibody, a biotinylated hamster anti-Bv8 antibody clone 3B8 (Genentech Inc.) followed by adding streptavidin-HRP (GE Healthcare, Buckinghamshire, United Kingdom) and 3,3′,5,5′-tetramethyl benzidine (Kirkegaard & Perry Laboratories, Gaithersburg, Md.) as the substrate. The reaction was stopped by adding 1 M phosphoric acid. Absorbance was read at 450 nm on a ThermoMax microplate reader (Molecular Devices, Menlo Park, Calif.). The titration curves of the standards were calculated using a four-parameter regression curve-fitting program (Genentech Inc). Human Bv8 concentration was calculated by extrapolating the optical density values of samples to the data range in the standard curve. The Bv8 ELISA was capable of measuring up to 10% lysis buffer and had the sensitivity to detect Bv8 as low as 0.20 ng/ml in tissue lysates. […] This ELISA could also detect mouse Bv8 but with less than 7% sensitivity.
Peripheral white blood cells were obtained from normal donors after 4-5 days of G-CSF treatment by apheresis collections (Cellular Therapy and Cell Processing Facilities, Fred Hutchinson Cancer Research Center, Seattle, Wash.). […]

[3] = test system: CD11b+Gr1+ cells; assay: G-CSF-induced mobilization of CD11b+Gr1+ cells; type: in vivo, mouse; settings: sub-maximal dose 2 μg, within six hours
Experimental: To determine the role of Bv8 in G-CSF-induced mobilization of CD11b+Gr1+ cells, Balb/c nude mice received two doses of anti-Bv8 antibodies (5+5 mg/kg), 12 hours apart, followed by mouse G-CSF (R&D Systems; 2 μg/mouse) fours hours after the second dose of Mab. As a positive control, we used a rat anti-mouse G-CSF Mab (Mab414, R&D Systems; 10 μg/mouse) given at the same interval as anti-Bv8, followed by mouse G-CSF. After six hours, mice were bled and the frequency of CD11b+Gr1+ cells was determined as described. To determine the role of G-CSF in regulating Bv8 expression in the absence of tumor, Balb/c nude mice were given daily i.p. injections of control rat IgG (Genentech) or rat anti-G-CSF Mab (Mab414, R&D Systems, 10 μg/mouse) for eight consecutive days. Animals were euthanized and total proteins were extracted from BMMNCs. Bv8 levels were measured by ELISA, as described. To assess the significance of G-CSF in regulating Bv8 expression in tumors, Balb/c nude mice were pretreated with 10 μg of rat anti-G-CSF Mab or rat IgG as above described, followed after 12 hours by implantation with HM7 cells (5×10^6 per mouse). Controls were implanted with empty Matrigel™. Animals then received daily administration of antibodies for two days. Forty-eight hours after Matrigel™ or tumor implantation, mice were euthanized and Bv8 levels in BMMNCs were measured as described above.

B1: G-CSF: recombinant granulocyte-CSF: mouse or human (R&D Systems) or human Neupogen (Amgen) (protein, chains of the INN, looked up)
chain: MTPLGPASSLPQSFLLKCLEQVRKIQGDGAALQEKLCATYKLCHPEELVLLGHSLGIPWAPLSSCPSQALQLAGCLSQLHSGLFLYQGLLQALEGISPELGPTLDTLQLDVADFATTIWQQMEELGMAPALQPTQGAMPAFASAFQRRAGGVLVASHLQSFLEVSYRVLRHLAQP
Bv8 expression in monocytes and lymphocytes ([1]; 10 ng/ml, 4 hr): did not show any change | induction of Bv8 expression in human neutrophils and whole bone marrow cells ([1]; 10 ng/ml, 4 hr): 7 fold | range of induction of Bv8 expression ([1]; 10 ng/ml, 4 hr): 6-12 fold | duration of Bv8 mRNA induction ([1]; data not shown): up to 24 hr | increase in Bv8 protein level in G-CSF mobilized mononuclear cells ([2]; ELISA, vs untreated donors): 10 fold | increase in Bv8 expression in G-CSF mobilized mononuclear cells ([2]; donors treated 4-5 days, vs untreated donors): About 4.5 fold | induction of PKR2/EG-VEGFR2 expression in mononuclear cells ([2]; vs un-treated control samples): ~2 fold | mobilization of CD11b+Gr1+ to the peripheral blood [3]: significant mobilization
